Assay results as given in publication doi:10.1101/2024.08.28.609967 (bioRxiv, 2024).
Each block holds one binder with its values, some of them ahead of it.

B3: GFP-FIP200 C-terminal region (CTR) (residues 1429–1591) (domain or fragment, UniProt Q8TDY2-2 1429-1591, looked up)
chain: ADEGRVDSAMETSMMSVQENIHMLSEEKQRIMLLERTLQLKEEENKRLNQRLMSQSMSSVSSRHSEKIAIRDFQVGDLVLIILDERHDNYVLFTVSPTLYFLHSESLPALDLKPASGASRRPWVLGKVMEKEYCQAKKAQNRFKVPLGTKFYRVKAVSWNKKV
notes: FIP200 (RB1CC1), C-terminal region with the Claw domain and a portion of the coiled-coil, residues 1429-1591; also called GFP-tagged FIP200-CTR; GFP-FIP200(CTR); source: E. coli Rosetta pLysS, purified (His-Trap, TEV cleavage, SEC); not shown: His6, N-terminal, cleaved; GFP, N-terminal, kept

Legend:
Details in all cases: both partners purified
mCherry-WIPI3 = target: T1, mCherry-WIPI3 (UniProt Q5MNZ6 1-344); experiment: microscopy-based bead assay; GFP-trap agarose beads coated with GFP-tagged bait (ULK1 complex, ATG13/101, FIP200, ULK1 K46I, ATG13 IDR and its fragments or variants; 5 uM), mCherry-tagged WIPI proteins as prey; 25 mM Tris-HCl pH 7.4, 150 mM NaCl, 1 mM DTT; confocal imaging
T1 construct: also called mCherry-tagged WIPI3; source: E. coli Rosetta pLysS, purified (His-Trap, SEC); not shown: mCherry, N-terminal, kept
T1 sequence (Q5MNZ6 whole entry, the tested form may be a part): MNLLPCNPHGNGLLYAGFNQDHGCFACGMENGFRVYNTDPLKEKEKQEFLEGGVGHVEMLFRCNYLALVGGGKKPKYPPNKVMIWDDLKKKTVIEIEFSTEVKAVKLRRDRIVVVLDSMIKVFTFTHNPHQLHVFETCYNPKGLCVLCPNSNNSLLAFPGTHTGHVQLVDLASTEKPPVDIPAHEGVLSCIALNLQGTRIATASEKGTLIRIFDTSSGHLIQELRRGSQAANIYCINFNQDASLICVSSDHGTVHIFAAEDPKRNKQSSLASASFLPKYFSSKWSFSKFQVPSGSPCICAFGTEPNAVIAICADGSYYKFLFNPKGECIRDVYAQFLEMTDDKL

CCPG1-GST (1–212aa) = target: T2, CCPG1-GST (1–212aa) (human, UniProt Q9ULG6 1-212); experiment: microscopy-based bead assay; glutathione beads coated with GST-tagged cargo receptors (5 uM), GFP-FIP200 CTR (1429-1591) as prey, 30 min; 25 mM Tris-HCl pH 7.4, 150 mM NaCl, 1 mM DTT; confocal imaging
T2 construct: CCPG1, cytosol-exposed domain, residues 1-212, synthetic gene; also called GST-tagged CCPG1; source: E. coli Rosetta pLysS, purified (glutathione beads, SEC); not shown: GST, C-terminal, kept
T2 sequence (looked up): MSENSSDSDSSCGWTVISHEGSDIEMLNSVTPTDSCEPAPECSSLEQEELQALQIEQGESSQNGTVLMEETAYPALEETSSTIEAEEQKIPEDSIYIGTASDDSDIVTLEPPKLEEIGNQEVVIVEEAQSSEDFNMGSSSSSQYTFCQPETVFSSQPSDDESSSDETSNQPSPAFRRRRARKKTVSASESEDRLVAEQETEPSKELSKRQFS

FKBP8-GST (1–391aa) = target: T3, FKBP8-GST (1–391aa) (human, UniProt Q14318 1-391); experiment: as above
T3 construct: FKBP8, cytosol-exposed domain, residues 1-391, synthetic gene; also called GST-tagged FKBP8; source: E. coli Rosetta pLysS, purified (glutathione beads, SEC); not shown: GST, C-terminal, kept
T3 sequence (Q14318 1-391): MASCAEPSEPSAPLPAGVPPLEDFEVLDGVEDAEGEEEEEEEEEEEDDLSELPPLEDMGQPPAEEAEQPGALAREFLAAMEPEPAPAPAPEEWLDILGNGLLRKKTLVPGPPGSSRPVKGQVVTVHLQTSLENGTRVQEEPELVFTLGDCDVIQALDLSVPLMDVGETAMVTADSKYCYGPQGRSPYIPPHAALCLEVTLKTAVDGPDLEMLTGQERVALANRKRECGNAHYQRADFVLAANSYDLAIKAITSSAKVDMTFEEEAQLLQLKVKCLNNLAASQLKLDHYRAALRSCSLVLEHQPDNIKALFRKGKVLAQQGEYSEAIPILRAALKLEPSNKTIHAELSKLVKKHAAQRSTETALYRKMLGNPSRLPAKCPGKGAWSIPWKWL

GST-TEX264 (28–313aa) = target: T4, GST-TEX264 (28–313aa) (human, UniProt Q9Y6I9 28-313); experiment: as above
T4 construct: TEX264, cytosol-exposed domain, residues 28-313, synthetic gene; also called GST-tagged TEX264; source: E. coli Rosetta pLysS, purified (glutathione beads, SEC); not shown: GST, N-terminal, kept
T4 sequence (looked up): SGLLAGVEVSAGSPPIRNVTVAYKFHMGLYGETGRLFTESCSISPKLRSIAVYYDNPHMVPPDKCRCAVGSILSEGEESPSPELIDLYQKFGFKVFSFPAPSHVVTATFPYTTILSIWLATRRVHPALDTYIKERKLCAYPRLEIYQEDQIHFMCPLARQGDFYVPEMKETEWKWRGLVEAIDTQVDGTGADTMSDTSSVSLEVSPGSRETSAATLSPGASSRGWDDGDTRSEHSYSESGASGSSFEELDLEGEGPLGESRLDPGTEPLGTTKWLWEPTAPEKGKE

BCL2L13(1–465aa)-GST = target: T5, BCL2L13(1–465aa)-GST (human, UniProt Q9BXK5 1-465); experiment: as above
T5 construct: BCL2L13, cytosol-exposed domain, residues 1-465; also called BCL2L13-GST; source: E. coli Rosetta pLysS, purified (glutathione beads, SEC); not shown: GST, C-terminal, kept
T5 sequence (Q9BXK5 1-465): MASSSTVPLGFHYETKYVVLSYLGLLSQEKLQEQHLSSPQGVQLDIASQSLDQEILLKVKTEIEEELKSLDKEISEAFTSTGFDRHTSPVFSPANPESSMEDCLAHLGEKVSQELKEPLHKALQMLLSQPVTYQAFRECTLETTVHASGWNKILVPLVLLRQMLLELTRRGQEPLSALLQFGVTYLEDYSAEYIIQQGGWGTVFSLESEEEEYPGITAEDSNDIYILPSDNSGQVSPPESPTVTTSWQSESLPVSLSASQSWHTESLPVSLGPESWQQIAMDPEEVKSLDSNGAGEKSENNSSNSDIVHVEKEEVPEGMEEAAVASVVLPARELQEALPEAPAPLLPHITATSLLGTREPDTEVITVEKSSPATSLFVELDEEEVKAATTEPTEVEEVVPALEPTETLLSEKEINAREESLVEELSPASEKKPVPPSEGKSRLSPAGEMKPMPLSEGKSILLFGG

GST-FAM134C (250–466aa) = target: T6, GST-FAM134C (250–466aa) (human, UniProt Q86VR2 250-466); experiment: as above
T6 construct: FAM134C, cytosol-exposed domain, residues 250-466, synthetic gene; also called GST-tagged FAM134C; source: E. coli Rosetta pLysS, purified (glutathione beads, SEC); not shown: GST, N-terminal, kept
T6 sequence (Q86VR2 250-466): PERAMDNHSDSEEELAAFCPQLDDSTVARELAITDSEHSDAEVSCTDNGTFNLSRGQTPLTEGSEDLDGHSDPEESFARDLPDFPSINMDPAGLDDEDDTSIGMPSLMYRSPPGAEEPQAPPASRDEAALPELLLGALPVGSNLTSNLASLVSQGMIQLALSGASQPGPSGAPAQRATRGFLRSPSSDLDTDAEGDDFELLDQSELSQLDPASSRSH

GST-WIPI3 = target: T7, GST-WIPI3 (UniProt Q5MNZ6 1-344); experiment: microscopy-based bead assay; glutathione beads coated with GST-tagged WIPI2d or WIPI3 (5 uM), mCherry-tagged ATG13 constructs as prey; 25 mM Tris-HCl pH 7.4, 150 mM NaCl, 1 mM DTT; confocal imaging
T7 construct: WIPI3 (WDR45B); Addgene numbers are tied to WIPI1/2/3/4 by their order in the list; also called GST-tagged WIPI3; GST-TEV-WIPI3; source: FreeStyle HEK293F cells, transfected, purified (glutathione beads, SEC); not shown: GST, N-terminal, kept
T7 sequence (Q5MNZ6 whole entry): as the sequence (Q5MNZ6 whole entry, the tested form may be a part) above

[1] = target: B3; experiment: microscopy-based bead assay; as a2 (GFP-FIP200 CTR prey) with kinases TBK1, MBP-ULK1, CK2 or Src (Y530F) and 10 mM MgCl2, 100 uM ATP

B2: GFP-tagged ATG13 (206–230) (peptide, UniProt O75143 206-230, looked up)
chain: PIMGIIIDHFVDRPYPSSSPMHPCN
notes: ATG13 residues 206-230; also called ATG13 IDR fragment (206–230aa); source: E. coli Rosetta pLysS, purified (glutathione beads, TEV cleavage, SEC on S75); not shown: GST, N-terminal, cleaved; EGFP, N-terminal, kept
- binding result (mCherry-WIPI3): binds

Binder: B3
- binding result (CCPG1-GST (1–212aa)): binds
- binding result (FKBP8-GST (1–391aa)): binds
- binding result (GST-TEX264 (28–313aa)): binds
- binding result (BCL2L13(1–465aa)-GST): binds
- binding result (GST-FAM134C (250–466aa)): binds

B7: FUNDC1(1–50aa)-GST (domain or fragment, human, UniProt Q8IVP5 1-50, looked up)
chain: MATRNPPPQDYESDDDSYEVLDLTEYARRHQWWNRVFGHSSGPMVEKYSV
notes: FUNDC1, cytosol-exposed domain, residues 1-50; also called FUNDC1-GST; source: E. coli Rosetta pLysS, purified (glutathione beads, SEC); not shown: GST, C-terminal, kept
- binding result [1]: binds

Next, values leading:

- binding result (mCherry-WIPI3): binds
B1: GFP-tagged ATG13 (191–230aa) (peptide, UniProt O75143 191-230, looked up)
chain: INLAFMSTRQFERTPPIMGIIIDHFVDRPYPSSSPMHPCN
notes: source: E. coli Rosetta pLysS, purified (glutathione beads, TEV cleavage, SEC on S75); not shown: GST, N-terminal, cleaved; EGFP, N-terminal, kept

- binding result (mCherry-WIPI3): binds
B4: GFP-tagged ATG13 IDR (Δ191–205aa) (domain or fragment, UniProt O75143 205-517, looked up)
chain: PPIMGIIIDHFVDRPYPSSSPMHPCNYRTAGEDTGVIYPSVEDSQEVCTTSFSTSPPSQLSSSRLSYQPAALGVGSADLAYPVVFAAGLNATHPHQLMVPGKEGGVPLAPNQPVHGTQADQERLATCTPSDRTHCAATPSSSEDTETVSNSSEGRASPHDVLETIFVRKVGAFVNKPINQVTLTSLDIPFAMFAPKNLELEDTDPMVNPPDSPETESPLQGSLHSDGSSGGSSGNTHDDFVMIDFKPAFSKDDILPMDLGTFYREFQNPPQLSSLSIDIGAQSMAEDLDSLPEKLAVHEKNVREFDAFVETLQ
notes: source: E. coli Rosetta pLysS, purified (glutathione beads, TEV cleavage, SEC); not shown: GST, N-terminal, cleaved; EGFP, N-terminal, kept

- binding result (GST-WIPI3): binds
B5: mCherry-tagged ATG13 IDR (191–517aa) (domain or fragment, UniProt O75143 191-517, looked up)
chain: INLAFMSTRQFERTPPIMGIIIDHFVDRPYPSSSPMHPCNYRTAGEDTGVIYPSVEDSQEVCTTSFSTSPPSQLSSSRLSYQPAALGVGSADLAYPVVFAAGLNATHPHQLMVPGKEGGVPLAPNQPVHGTQADQERLATCTPSDRTHCAATPSSSEDTETVSNSSEGRASPHDVLETIFVRKVGAFVNKPINQVTLTSLDIPFAMFAPKNLELEDTDPMVNPPDSPETESPLQGSLHSDGSSGGSSGNTHDDFVMIDFKPAFSKDDILPMDLGTFYREFQNPPQLSSLSIDIGAQSMAEDLDSLPEKLAVHEKNVREFDAFVETLQ
notes: also called mCh-IDR; source: E. coli Rosetta pLysS, purified (His-Trap, SEC); not shown: mCherry, N-terminal, kept

- binding result (mCherry-WIPI3): binds
B6: GFP-tagged ATG13 IDR (191–517aa) (domain or fragment, UniProt O75143 191-517, looked up)
chain: INLAFMSTRQFERTPPIMGIIIDHFVDRPYPSSSPMHPCNYRTAGEDTGVIYPSVEDSQEVCTTSFSTSPPSQLSSSRLSYQPAALGVGSADLAYPVVFAAGLNATHPHQLMVPGKEGGVPLAPNQPVHGTQADQERLATCTPSDRTHCAATPSSSEDTETVSNSSEGRASPHDVLETIFVRKVGAFVNKPINQVTLTSLDIPFAMFAPKNLELEDTDPMVNPPDSPETESPLQGSLHSDGSSGGSSGNTHDDFVMIDFKPAFSKDDILPMDLGTFYREFQNPPQLSSLSIDIGAQSMAEDLDSLPEKLAVHEKNVREFDAFVETLQ
notes: Addgene numbers of the GFP-ATG13 constructs are tied to the ranges by their order in the list; also called ATG13 IDR wild-type (WT); source: E. coli Rosetta pLysS, purified (glutathione beads, TEV cleavage, SEC); not shown: GST, N-terminal, cleaved; EGFP, N-terminal, kept
